Laboratory results: US20250154494A1, “Microfluidic Co-Encapsulation Device and System and Methods for Identifying T-Cell Receptor Ligands” (JANSSEN BIOTECH, INC., priority 2021, published 2025)
Blank lines part the entries; values can stand above or below the molecule they belong to.

Experiments:
Jurkat cells = assay: Droplet co-culture of B and T cells, CD69 surface expression by flow cytometry; type: cell-based; conditions: 8 mM Ca^2+ in T cell suspension, 2 mM EDTA in B cell suspension
Protocol: One day prior to encapsulation, BOLETH cells were cultured in the presence of cognate or negative control peptides at a final concentration of 1 μM. Cells were collected the next day, centrifuged at 300 g for 5 min, then resuspended in B-cell medium at a final concentration of 1.4×10^7 cells/ml. These were further supplemented with same peptide and with or without EDTA. TCR-expressing Jurkat cells were centrifuged at 300 g and resuspended in B-cell medium at a concentration of 4×10^7 cells/ml. These were then further supplemented with respective concentrations of calcium. BOLETH, Jurkat, and detergent-containing fractions were connected to the microfluidic chip as described. Pressures were applied using an OB1 MK3+ and the droplet emulsion was collected into a 1.5 ml reaction tube containing oil.
Droplets were incubated at 37° C. in a 5% CO2 humidified incubator. Following overnight incubation, droplet emulsions were disrupted by adding two volumes of Pico-Break 1 (SPHERE FLUIDICS). Tubes were quickly inverted several times and centrifuged for 15 s at 300 rpm to facilitate separation of the cell-containing fraction. […] Tubes were centrifuged for 5 min at 300 g and cell pellets were subsequently resuspended in 100 μl of FACS buffer and were analyzed via flow cytometry. […]

Jurkat T cells = assay: Bulk plate co-culture of TCR-expressing Jurkat T cells with B cells presenting cognate peptide, CD69 surface expression; type: cell-based; conditions: Ca^2+ in equimolar concentration to EDTA in the medium
CD19 on BOLETH cells [1] = biological target: T1, CD19 on BOLETH cells (UniProt P15391 20-556, limits assumed); assay: flow cytometry; scFv secreted by Jurkat TT2 reporter cells in co-culture with BOLETH cells, 0.1 nM-10 µM cognate peptide
T1 construct: whole, on cells; also called B cell-specific transmembrane protein CD19
T1 sequence (looked up): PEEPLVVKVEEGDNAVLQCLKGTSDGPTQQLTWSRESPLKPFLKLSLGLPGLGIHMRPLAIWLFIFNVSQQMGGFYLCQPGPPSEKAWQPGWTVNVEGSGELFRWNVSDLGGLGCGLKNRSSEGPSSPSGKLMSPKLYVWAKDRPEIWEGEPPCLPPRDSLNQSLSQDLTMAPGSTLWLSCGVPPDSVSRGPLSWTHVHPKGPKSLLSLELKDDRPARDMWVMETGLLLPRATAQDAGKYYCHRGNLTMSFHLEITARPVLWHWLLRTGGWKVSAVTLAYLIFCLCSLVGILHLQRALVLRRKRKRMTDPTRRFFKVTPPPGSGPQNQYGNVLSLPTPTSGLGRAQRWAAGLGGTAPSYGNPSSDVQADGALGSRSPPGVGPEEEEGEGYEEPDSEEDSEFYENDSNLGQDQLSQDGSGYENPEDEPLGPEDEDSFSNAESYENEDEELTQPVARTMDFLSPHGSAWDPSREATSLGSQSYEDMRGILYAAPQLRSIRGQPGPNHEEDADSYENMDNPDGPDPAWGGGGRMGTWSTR

BOLETH cells = assay: Co-culture of Jurkat TT2 scFv reporter cells with BOLETH cells in presence of cognate peptide, flow cytometry; type: cell-based; conditions: 0.1 nM-10 μM cognate peptide; versus V5-tagged αCD20-scFv
CD19 on BOLETH cells [2] = biological target: T1, CD19 on BOLETH cells; assay: flow cytometry; BOLETH cells stained with supernatant of HEK cells transfected with tandem (T2A) constructs, anti-HA antibody
TCR signaling [3] = assay: Co-culture of SKW-3 cells expressing sleeping beauty transposon reporters with peptide-loaded B cells (GFP / HA reporter); type: cell-based; conditions: 1 μM peptide
Protocol: (§1) Sleeping beauty transposon reporter constructs were transfected together with transposases into T cells, 5 to 1 ratio, using the Neon transfection system following the manufacturer's protocol. The voltages used for Jurkat cells were 1350V/[…]/3 pulse, and for SKW-3 cells 1500V, […] and 1 pulse were used as settings. 48-72 hours after transfection, the cells were selected using […] Blasticidin for Jurkat and […] Blasticidin for SKW-3 cells.
(§2) Co-culture experiments were performed using round-bottom 96-well plates. P10-NBV Jurkat and SKW-3 reporter cells and B cells were seeded at a 1:1 ratio into each well. For peptide co-culture experiments, either cognate peptide or mismatched peptide is added to each well and incubated for 16 hours. For minigene-based co-culture experiments, minigene-transduced B cells harboring either the cognate of mismatch minigenes were used. Next day the cells are spun down and stained for Flow cytometry.

TCR signaling [4] = assay: Co-culture of Jurkat reporter cells carrying synthetic promoters with peptide-loaded B cells (GFP / HA reporter); type: cell-based
Protocol: as §1, §2

Molecule: [Ca+2] [Ca^2+]
T cell activation measured by CD69 surface expression in droplets (Jurkat cells): rescues Ca^2+ dependent T cell activation
T cell activation measured by surface expression of CD69 (Jurkat T cells): fully restores T cell activation

fold reduction in MFI compared to V5-tagged αCD20-scFv (VLVH) (CD19 on BOLETH cells [1]): ~5 fold
B1: αCD19-scFv (clone B43), four-times V5-tagged (scFv)
scFv: EVQLVQSGAEVKKPGSSVKVSCKASGYAFSSYWMNWVRQAPGQGLEWMGQIWPGDSDTNYAQKFQGRVTITADESTSTAYMELSSLRSEDTAVYYCARRETTTVGRYYYAMDYWGQGTTVTVSSGGGGSGGGGSGGGGSDIQLTQSPSFLSASVGDRVTITCKASQSVDYSGDSYLNWYQQKPGKAPKLLIYDASNLVSGVPSRFSGSGSGTEFTLTISSLQPEDFATYYCQQSTENPWTFGGGTKLEIKGKPIPNPLLGLDSTGAGSGGKPIPNPLLGLDSTGAGSGGKPIPNPLLGLDSTGGAGSGGKPIPNPLLGLDSTGSGAGGSSL
notes: also called αCD19-scFv V5-tagged

B2: αCD19-scFv V5-tagged: αCD19 scFv (clone B43) with four-times V5 tag (protein)
scFv: EVQLVQSGAEVKKPGSSVKVSCKASGYAFSSYWMNWVRQAPGQGLEWMGQIWPGDSDTNYAQKFQGRVTITADESTSTAYMELSSLRSEDTAVYYCARRETTTVGRYYYAMDYWGQGTTVTVSSGGGGSGGGGSGGGGSDIQLTQSPSFLSASVGDRVTITCKASQSVDYSGDSYLNWYQQKPGKAPKLLIYDASNLVSGVPSRFSGSGSGTEFTLTISSLQPEDFATYYCQQSTENPWTFGGGTKLEIKGKPIPNPLLGLDSTGAGSGGKPIPNPLLGLDSTGAGSGGKPIPNPLLGLDSTGGAGSGGKPIPNPLLGLDSTGSGAGGSSL
reduction in MFI (BOLETH cells): about 5 fold

binding result (CD19 on BOLETH cells [2]): binds
B3: αCD19-scFv (clone B43), VH-VL, tagged with six HA epitope tags at its C-terminus (scFv)
scFv: EVQLVQSGAEVKKPGSSVKVSCKASGYAFSSYWMNWVRQAPGQGLEWMGQIWPGDSDTNYAQKFQGRVTITADESTSTAYMELSSLRSEDTAVYYCARRETTTVGRYYYAMDYWGQGTTVTVSSGGGGSGGGGSGGGGSDIQLTQSPSFLSASVGDRVTITCKASQSVDYSGDSYLNWYQQKPGKAPKLLIYDASNLVSGVPSRFSGSGSGTEFTLTISSLQPEDFATYYCQQSTENPWTFGGGTKLEIKGAGSYPYDVPDYAGAGSYPYDVPDYAGGSYPYDVPDYAGGAGSYPYDVPDYAGAGSYPYDVPDYAGAGSYPYDVPDYAG
notes: also called αCD19-HA; B43-HA

B4: NBV promoter: synthetic TCR responsive promoter, SEQ ID NO:50 (nucleic acid)
DNA: GAATTCAAGTACCGTGCAGGAGGAAAAACTGTTTCATACAGAAGGCGTGGGCTATGCAAATCGAAACGCTGGAAACACTGAGTAATCAGATCAAGTCATGTTTCCATTTGAATGCAAATGGATACAGAAGGCGTGGAGGAAAAACTGTTTCCTGTTCCAATAGACGCCCTTTTTGAATGCAAATGGCGAGCTCATGGGTTTCTCCACCAAGGTGACGAGTGGAAAATCTGACTCAGAATTATCCCTTGTTATGCAAATCGCCCAAAGAGGAAAATTTGTTTCATAGAACATACTGTCTCAAATAGACGCCTCCTCGAGCGTTTCCCGGGGTACC
HA and GFP fluorescence intensities with 2 copies of promoter instead of 1 (TCR signaling [3]): doubled
GFP and HA reporter gene expression in sleeping beauty constructs (TCR signaling [4]; sleeping beauty constructs): high GFP and HA reporter gene expression
GFP and HA median intensity compared to NFAT promoters (TCR signaling [4]; sleeping beauty transposon reporters in Jurkat cells, 1 μM peptide): best signal
intensity of HA and GFP signals compared to 4×NFAT (TCR signaling [4]; sleeping beauty transposon system, different concentrations of cognate peptide): higher intensity of both HA and GFP signals
